The record followed here is patent US8198236B2, “Methods and compositions for the treatment of cancer” (Washington University, priority 2007, dated 2012).

For assay [1], the target named is T1, LRP6 (Homo sapiens, UniProt O75581).
T1 construct: expressed in transfected cells; host or cells: human HT1080 cells, retroviral vector pLNCX2
Nature of the assay: 125I-Mesd cell surface binding to LRP6-transduced HT1080 cells. The protocol: (§1) To examine whether Mesd binds with high affinity to most members of the LDLR family at the cell surface, we performed cell surface ligand binding experiments with cells stably transduced with LRP6 cDNA. Human HT1080 cells, which express undetectable levels of LRP6, were transduced with a viral vector alone (pLNCX2) or with vector containing LRP6 cDNA (Li, Y., Oncogene 23: 9129-9135, 2004) and used for ^125I-Mesd binding (FIG. 1A). ^125I-Mesd (5 nM) reached maximal binding after 2 hours incubation at 4° C. with LRP6-expressing HT1080 cells (FIG. 1A).
(§2) (A) Time course of ^125I-Mesd (5 nM) binding to LRP6-transduced HT1080 cells and the control cells. Assay was carried out for the indicated periods at 4° C. in the absence (total) or presence of 500 nM Mesd (non-specific). (B) Saturation binding of ^125I-Mesd to LRP6-transduced HT1080 cells and the control cells. Assay was carried out at indicated concentrations for 3 hours at 4° C. in the absence (total) or presence (non-specific) of 500 nM Mesd. (C) Scatchard plots of data in B. All values are the average of triple determinations with the s.d. indicated by error bars.
(§3) Cells (2×10^5) were seeded into 12-well dishes 1 day prior to assay. Ligand-binding buffer (minimal Eagle's medium containing 0.6% BSA with a different concentration of radioligand, 0.6 ml/well) was added to cell monolayers, in the absence or the presence of 500 nM unlabeled RAP or 500 nM unlabeled Mesd, followed with incubation for 0-4 hours at 4° C. Thereafter, overlying buffer containing unbound ligand was removed, and cell monolayers were washed and lysed in low-SDS lysis buffer (62.5 mM Tris-HCl pH 6.8, 0.2% SDS, 10% v/glycerol) and counted.
(§4) To analyze the Mesd sequences that are required for Mesd to bind to mature LRP6 at the cell surface with high affinity, sequences were compared between mouse Mesd and its homologs from different species. […] We thus generated two truncated Mesd mutants lacking either the N-terminal region, MESD (12-195), or both the N-terminal and C-terminal regions, Mesd (12-155) (FIG. 3A). The ability of these mutants to bind to cell surface LRP6 was then assessed.
(§5) In this example, a truncated Mesd mutant containing the last 45 amino acids of C-terminal region was generated (FIG. 3A) and its binding affinity for LRP6 was then analyzed. […] (A) Binding analyses of ^125I-Mesd and its mutant Mesd (150-195) (5 nM) to LRP6-transduced HT1080 cells and control cells. (B) Binding analyses of ^125I-Mesd and its mutant Mesd (150-195) (5 nM) to LRP6-transduced HT1080 cells. Assays were carried out for 3 hours at 4° C. in the absence or presence of 500 nM Mesd or its mutant. Values are the means of triple determinations with the s.d. indicated by error bars.
(§6) LRP6-mediated Mesd uptake and degradation was investigated in the experiments illustrated in FIG. 7. (A) LRP6-mediated ^125I-Mesd (5 nM) degradation in LRP6-transduced HT1080 cells and control cells was carried out for 4 hours at 37° C. in the absence or presence of 500 nM Mesd. (B) ^125I-Mesd (5 nM) binding to LRP6-transduced HT1080 cells and the control cells was carried out for 4 hours at 4° C. in the absence or presence of 500 nM Mesd. Values are the means of triple determinations with the s.d. indicated by error bars.

Assay [2] deals with LRP6. The description is as above. Also on record: species or system human. As to conditions: HT1080 cells transduced with vector alone. The protocol: as §1, §2, §3, §4, §5, §6
Assay [3] relates to Wnt signaling. Nature of the assay: TCF/LEF-luc reporter assay in Wnt-3A-treated HEK293 cells. It counts as cell-based. Particulars: Wnt3A conditioned medium plus 500 nM, 16 hours at 37° C. The protocol: HEK293 cells were plated into six-well plates. For each well, 0.1 μg of the TOP-FLASHTCF luciferase construct (Upstate Biotechnology) was cotransfected with 0.8 μg Mesd-expressing vector, 0.8 μg Mesd mutant-expressing vector, or empty vector. A β-galactosidase-expressing vector (Promega, Madison, Wis.) was included as an internal control for transfection efficiency. After 48 hours, cells were lysed and both luciferase and β-galactosidase activities were determined with enzyme assay kits (Promega). The luciferase activity was determined with a luminometer using the Dual Luciferase Assay system (Promega). Luciferase activity was normalized to the activity of the β-galactosidase.
In these experiments, transfected cells were treated without Wnt-3A or with Wnt-3A plus the indicated inhibitors (Mesd and/or Dkk1) for 16 hours at 37° C. Wnt signaling was measured by quantifying the luciferase activity using a live cell imaging system.
Background: In a reporter assay the amount or activity of a reporter protein is the signal.

Assay [4] deals with MMTV-Wnt1 tumors. Nature of the assay: MMTV-Wnt1 tumor transplant growth in nude mice. It counts as in vivo. Particulars: i.p. every other day, first dose 15 mg/kg then 10 mg/kg, three weeks. The protocol: Recombinant Mesd protein was prepared as described (Li Y, et al. (2005) J Cell Sci 118(22): 5305-5314). Mesd peptide, […] (SEQ ID NO: 14), was manufactured by Abgent (San Diego). Female athymic nude mice (Taconic) (6-8 weeks old) were used for passaging tumors from MMTV-Wnt1 mice (Taconic). MMTV-Wnt1 tumors were serially passaged in mice by implantation in the mammary fat pad as described (DeAlmeida V, et al. (2007) Cancer Res 67, 5371-5379). Therapeutic agents (200 μL Mesd protein, Mesd peptide or PBS) were administrated i.p. with a first dose of 15 mg/kg, followed by 10 mg/kg (9 more doses). Three groups of mice were treated every other day for three weeks and tumor volumes were measured thrice weekly.
The pharmacokinetics and bioavailability of Mesd and Mesd peptide ([…] (SEQ ID NO: 14)) were first investigated (FIG. 23). Cells from MMTV-Wnt1 tumors were injected into the mammary fat pads of female nude mice, and the resultant mice were subsequently randomly grouped when the mean tumor volume reached ca. 200 mm^3. […]
In these experiments, mice bearing established MMTV-Wnt1 tumor transplants were divided into three groups (five animals per group) and were i.p. injected with PBS (vehicle), Mesd, or Mesd peptide every other day. Tumor volume was analyzed using caliper measurement. […]

T1 sequence (O75581 20-1613): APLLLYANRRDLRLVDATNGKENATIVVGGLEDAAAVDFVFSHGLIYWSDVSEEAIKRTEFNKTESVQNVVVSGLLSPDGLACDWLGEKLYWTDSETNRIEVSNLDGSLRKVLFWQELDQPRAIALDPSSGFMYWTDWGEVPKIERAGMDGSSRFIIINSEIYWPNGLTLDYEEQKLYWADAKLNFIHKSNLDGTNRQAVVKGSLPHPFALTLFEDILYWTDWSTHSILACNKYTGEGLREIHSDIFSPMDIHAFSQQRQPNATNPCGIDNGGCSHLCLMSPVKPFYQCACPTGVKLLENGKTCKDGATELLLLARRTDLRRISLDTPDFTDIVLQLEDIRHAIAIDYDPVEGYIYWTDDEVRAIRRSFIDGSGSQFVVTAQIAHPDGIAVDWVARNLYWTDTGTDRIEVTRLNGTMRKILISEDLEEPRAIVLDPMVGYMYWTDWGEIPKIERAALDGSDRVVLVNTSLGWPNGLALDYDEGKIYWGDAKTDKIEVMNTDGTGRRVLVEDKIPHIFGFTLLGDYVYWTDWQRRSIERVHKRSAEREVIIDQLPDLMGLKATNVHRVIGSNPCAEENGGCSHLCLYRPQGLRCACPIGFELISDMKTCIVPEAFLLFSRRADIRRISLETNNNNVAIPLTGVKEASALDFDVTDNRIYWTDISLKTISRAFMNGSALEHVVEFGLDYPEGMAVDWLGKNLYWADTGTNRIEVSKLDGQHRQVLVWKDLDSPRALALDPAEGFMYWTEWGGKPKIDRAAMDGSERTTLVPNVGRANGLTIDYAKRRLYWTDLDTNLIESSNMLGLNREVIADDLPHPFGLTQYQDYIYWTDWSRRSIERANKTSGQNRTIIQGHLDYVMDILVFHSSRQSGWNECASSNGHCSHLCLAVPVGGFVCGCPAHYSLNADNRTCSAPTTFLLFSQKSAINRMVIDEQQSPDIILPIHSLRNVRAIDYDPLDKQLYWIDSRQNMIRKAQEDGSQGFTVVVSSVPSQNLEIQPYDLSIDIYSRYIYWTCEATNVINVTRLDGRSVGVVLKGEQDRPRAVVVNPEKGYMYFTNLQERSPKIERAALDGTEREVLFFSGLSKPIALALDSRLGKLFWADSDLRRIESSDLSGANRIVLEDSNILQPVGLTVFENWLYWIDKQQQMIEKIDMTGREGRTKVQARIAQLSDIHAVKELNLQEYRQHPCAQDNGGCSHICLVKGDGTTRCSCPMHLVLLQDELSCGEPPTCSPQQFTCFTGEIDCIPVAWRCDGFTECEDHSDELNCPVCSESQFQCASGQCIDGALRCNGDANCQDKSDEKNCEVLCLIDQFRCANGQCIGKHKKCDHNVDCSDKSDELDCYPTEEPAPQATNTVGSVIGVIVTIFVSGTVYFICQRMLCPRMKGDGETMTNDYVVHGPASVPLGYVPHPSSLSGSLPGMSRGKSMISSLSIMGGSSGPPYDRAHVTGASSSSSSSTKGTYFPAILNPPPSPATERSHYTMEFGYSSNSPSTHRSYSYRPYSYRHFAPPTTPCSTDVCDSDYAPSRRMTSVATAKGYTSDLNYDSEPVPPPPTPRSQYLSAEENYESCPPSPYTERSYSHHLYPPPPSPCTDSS

B1: Mesd: Recombinant full-length mouse Mesd expressed in E. coli, N-terminal polyhistidine tail, lacking the signal peptide (protein)
chain: ADTPGEATPPPRKKKDIRDYNDADMARLLEQWEKDDDIEEGDLPEHKRPSAPIDFSKLDPGKPESILKMTKKGKTLMMFVTVSGNPTEKETEEITSLWQGSLFNANYDVQRFIVGSDRAIFMLRDGSYAWEIKDFLVSQDRCAEVTLEGQMYPGKGGGSKEKNKTKPEKAKKKEGDRKPRASKEDNRAGSRREDL
modifications: left off: small tags and cut ends
notes: Recombinant full-length mouse Mesd expressed in E. coli, N-terminal polyhistidine tail, lacking the signal peptide
Consider B1, for which the 125I-Mesd binding in assay [1] (5 nM, 4 hours at 4° C.) is 1320 fmoles/mg cell protein. The “Concentration at which Mesd specific binding saturates” value in assay [1] (LRP6-transduced HT1080 cells, 3 hours at 4° C.) is above 6.4 nM. Also, in assay [2], the “125I-Mesd binding to control cells (pLNCX2)” value is given as “No significant”. Moreover, the “Inhibition of Wnt signaling (luciferase activity)” value in assay [3] is recorded as “moderately inhibit”. Besides, in assay [4], the “Tumor growth (tumor volume, caliper)” value is recorded as “significantly inhibit tumor growth”.
